Test system: MS2 coat protein
Assay: apparent KD of MS2 coat protein; designed switch direction (-1 OFF switch, 1 ON switch): -1; higher = weaker reporter binding
Procedure, shortened: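 For each design, the apparent KD is the median over clusters of curves fitted to normalised cluster fluorescence. Clusters held RNA switches with common flanks, transcribed on Illumina chips by stalled E. coli RNA polymerase. These were titrated with SNAP-549-labelled MS2 coat protein, doubling from 0.7 or 1.5 nM to 3 µM, without input, with 200 uM small-molecule ligand, or with an oligonucleotide input.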

[1] = Eterna round: R95, input ligand: FMN 200 uM
[2] = Eterna round: R95, input ligand: microRNA oligo, concentration not stated
[3] = Eterna round: R95, input ligand: none
[4] = input ligand: microRNA oligo, concentration not stated

Row | Sequence | apparent KD of MS2 coat protein (input ligand: FMN 200 uM) | apparent KD of MS2 coat protein (input ligand: none) | apparent KD of MS2 coat protein [1] | apparent KD of MS2 coat protein [2] | apparent KD of MS2 coat protein [3] | apparent KD of MS2 coat protein [4]
1 | GCGCGUAGAUAGGAUAUUUGAUAAAGACGGACCAAAGAAGGAUUUACAUGAGGAUCACCCAUGUCGAUCCUCUU [EX6 C.17] (Eterna round: R97, puzzle: Exclusion 6) | 14.2 nM | 16.4 nM | – | – | – | –
2 | UAACACCGAGGAUAUACAUUUCUCAUAAGGUGCAAAACCGCACAUGAGGAUCACCCAUGUAGAAGGCGGCAAAU [Enrabeange] (puzzle: Exclusion 2) | – | – | 32 nM | 10.5 nM | 14.8 nM | –
3 | GUCACAUGGACAUAGGAUCACAUGAGGAUCACCCAUGUGACUAACAAGCUUUUUGCUCGUCUUAUGUCUAUGUGAAA [Stov1/16-A1] (Eterna round: R97, puzzle: Sensor, turn-off variant 1) | 12.8 nM | 12 nM | – | – | – | –
4 | CUUUAGUGAGGAUAUCGGUAGUAAUACAAUAGUAUUACUACUGAGAAGGCACAUGAGGAUCACCCAUGUUCCUC [Mat - Exclusion 4 - Mod of Omei - D82] (puzzle: Exclusion 4) | – | – | – | 30.2 nM | – | –
5 | GUUAACGUAGGAUAUUAGUACAUGAACAUGAGGAUCACCCAUGUGAGGUGGGUCUAAGAAUAAGAAGGGCGAAGAA [EX5 #26] (Eterna round: R97, puzzle: Exclusion 5) | 317 nM | 312 nM | – | – | – | –
6 | AACCUACAUGAGGAUCACCCAUGUGAGGAUAUAUUGUUAUUUAUAAUAUUUUUUAGUGGUAGAAGGCGCGUGAU [JR_Exc1_Sub019] (Eterna round: R97, puzzle: Exclusion 1) | 21 nM | 18.5 nM | – | – | – | –
7 | AAAUCUGCUGAGGAUAUGAUGACUGAGAGGUCAUCAGAAGGCGGUACAUGAGGAUCACCCAUGUCUAUGGGCAA [Ex-6 Malc#30] (puzzle: Exclusion 6) | – | – | – | 243 nM | – | –
8 | GGCUAGUCAGGAUAUACGAACAUGUCAAAAGACGUGAAGGGACAUGAGGAUCACCCAUGUAGAAGGGACUAGCA [salish99-ex2-12] (Eterna round: R96, puzzle: Exclusion 2) | 187 nM | 28 nM | – | – | – | 21 nM
9 | AUCAAGGGAGGAUAUACAGUGAACAGUACUAGUCAGGCGGCACAUGAGGAUCACCCAUGUAGAAGGCCCAUGAU [Eternabot (L1) Solution 70] (Eterna round: R97, puzzle: Exclusion 2) | 80 nM | 24.8 nM | – | – | – | –
10 | UAAUAAUAGUGAGGAUAUAGUUAUUAUAAUAUACUAGAAGGUACACAUGAGGAUCACCCAUGUUUUAUAAUUUGUAAUUUAAAU [4th something] (Eterna round: R96, puzzle: Exclusion NG 1) | – | – | – | – | – | 18.4 nM
11 | AUAAAUCAUGUAGGAUAUGCGUGGCGAAGCUAUGCAGAAGGACAUGAGGAUCACCCAUGUGCUUGCGUCUGAGUACAGAUGCUA [Mat - Exclusion NG 1 - Mod of JL - D6] (Eterna round: R96, puzzle: Exclusion NG 1) | 264 nM | 91.8 nM | – | – | – | 77.1 nM
12 | AACACGGGAGGAUAUGCGACAGGAAACAUGAGGAUCACCCAUGUGGAUGGUCGUACAAACGUAGAAGGCCCGCCCA [Eternabot (Original) Solution 1] (Eterna round: R97, puzzle: Exclusion 5) | 12.9 nM | 15.3 nM | – | – | – | –
13 | UGCUGAGUUGACAGUGGUAACAUGAGGAUCACCCAUGUAUGUUUGUGCUUAAGCGGGUUGUUUCUUGUUCGUCUCUC [Eternabot (L2) Solution 5] (Eterna round: R97, puzzle: Sensor, turn-off variant 1) | 262 nM | 349 nM | – | – | – | –
14 | AGAUGUAGAUUCCGAUCCUACAUGAGGAUCACCCAUGUAGCUAGACGUGCGGGCGGCGCUCGUCGGACUACCAGUAG [salish99_TOv1_r3_096] (puzzle: Sensor v3, turn-off variant 1) | – | – | 53.5 nM | 69.8 nM | 84.6 nM | –
15 | AACCCGAUAGGAUAUACUUGAGGAUCACCCAAGUACGCCUGCAAUGCAAGCGCCUGAAGUAGAAGGAUCAAAAG [Gexetele] (Eterna round: R97, puzzle: Exclusion 3) | 21 nM | 31.1 nM | – | – | – | –
16 | UCGUUCCGUGUAGGAUAUUGGCCUUCUCUGGGCCGAGAAGGACAUGAGGAUCACCCAUGUAUGUUAUUAUCGCGCGUGGCGCAU [Design 85] (Eterna round: R96, puzzle: Exclusion NG 1) | – | – | – | – | – | 24.7 nM
17 | UAUUACUCAGGAUAUAUGAUGUGAAACAUGAGGAUCACCCAUGUAAUAUUAUGGAUGUAAAUAGAAGGGAGAUUAU [Mat - Exclusion 5 - JL mod - D19] (puzzle: Exclusion 5) | – | – | 49.2 nM | 51.8 nM | 64.6 nM | –

Row | Sequence | apparent KD of MS2 coat protein (input ligand: FMN 200 uM) | apparent KD of MS2 coat protein (input ligand: none) | apparent KD of MS2 coat protein [1] | apparent KD of MS2 coat protein [2] | apparent KD of MS2 coat protein [3] | apparent KD of MS2 coat protein [4]
18 | UGGUGUGCGAAGGAUAUGUAGGCUAUCAUGUCAAUAGAAGGUUGCACAUGAGGAUCACCCAUGUAAGCCACUUA [Eternabot (L1) Solution 17] (Eterna round: R97, puzzle: Exclusion 6) | 69.2 nM | 83 nM | – | – | – | –
19 | AACAGUCUAGAGGAUAUGUGGGAUUAAUAUCUUGCAGAAGGCUGGACAUGAGGAUCACCCAUGUAAAUACUACC [Omei Ex6 A15] (Eterna round: R97, puzzle: Exclusion 6) | 80.8 nM | 32.9 nM | – | – | – | –
20 | AAAUAACAAGCAGGAUCCUACAUGAGGAUCACCCAUGUGCUCGUCUUAUAAAGUACUAUCACGAAAGUGAUAGUACU [Mat - Sensor v3 - turn-off var 1 - Eli Mod - D72] (puzzle: Sensor v3, turn-off variant 1) | – | – | 153 nM | 93 nM | 156 nM | –
21 | ACUUAUUGAGGAUAUACAUAAAUUUACAUGAGGAUCACCCAUGUUCUUCUAUGUAUAUAUGUAGAAGGCAGAAGAG [Mat - Exclusion 5 - JL Mod - D33] (Eterna round: R97, puzzle: Exclusion 5) | 30.1 nM | 17.2 nM | – | – | – | –
22 | CUUUCGUCUGUGGGUGGUGACAUGAGGAUCACCCAUGUUUUGCUCGUUUUGUCUUGGGCUCGGCGCCCGGGUUCGGG [-25.2, -46.4, A 8%] (Eterna round: R97, puzzle: Sensor, turn-off variant 1) | 467 nM | 872 nM | – | – | – | –
23 | UAGCAGAGAGGAUAUACAUUCAUCACCCGCGCAUCAUGCGCACAUGAGGAUCACCCAUGUAGAAGGCUCGUGCC [EX2 C.27] (Eterna round: R97, puzzle: Exclusion 2) | 74.3 nM | 28.2 nM | – | – | – | –
24 | AAUCCUGAAGUUAGGAUAUGAAGUAUCACUGCACUUCAGAAGGGACUUGAGGAUCACCCAAGUAGCCGUGAGGC [jl-bmx4.4.61 ViennaUCT mod] (Eterna round: R97, puzzle: Brourd's mod of Exclusion 4) | 156 nM | 35.6 nM | – | – | – | –
25 | GGAAAGGUAGGAUAUACGAAGAAAAAGGGUAGAAUAAUAACACAUGAGGAUCACCCAUGUAGAAGGACCAAAGG [Mat - Exclusion 2 - Mod of my Tesla design - D6] (puzzle: Exclusion 2) | – | – | 40.5 nM | 23.1 nM | 19.3 nM | –
26 | AAAUUGUGAGGAUAUCCAAUAUAUGACAUGAGGAUCACCCAUGUUUCCACUCGUACCUCCGGAGAAGGCACUGCAA [Ex5 #39] (Eterna round: R97, puzzle: Exclusion 5) | 22.3 nM | 27.2 nM | – | – | – | –
27 | GCUGGAAAAGGAUAUACAUAACGUGCGUCAGCACGAGACCUACAUGAGGAUCACCCAUGUAGAAGGUUUCCAGC [EX2 #75] (Eterna round: R97, puzzle: Exclusion 2) | 22.8 nM | 16.8 nM | – | – | – | –
28 | ACUAGAUGAGGAUAUACACAUUUUAGUGUUCCUCUAGAUUAACAUGAGGAUCACCCAUGUAGAAGGCAUCAUUA [Exclusion 2 - 9] (puzzle: Exclusion 2) | – | – | – | 65 nM | – | –
29 | GAUGAGGUAGGAUAUACGAGAAGAUAGGGUAGAUAGAUAACACAUGAGGAUCACCCAUGUAGAAGGACCAGUAG [Mat - Exclusion 2 - Mod of my Tesla design - D72] (puzzle: Exclusion 2) | – | – | – | 32.5 nM | – | –
30 | AAAAUAAAGAUGCCUUAAAACAUGAGGAUCACCCAUGUGAGUAAGGAUAUCGGAACCAAUCGCGACGAGAAGGUACUCGCGUGU [Ceestemaat] (Eterna round: R96, puzzle: Exclusion NG 3) | 9.87 nM | 14.4 nM | – | – | – | 9.44 nM
31 | ACAUGAGGAUCACCCAUGUCUGGCUGGUCUGUUCCGGCUGUUGAGGAUAUAGUCCGGUGUUCGCGCUAGAAGGUGAGGGCUGGA [Aenatbe mod 43] (Eterna round: R96, puzzle: Exclusion NG 3) | 54.5 nM | 57 nM | – | – | – | 32.9 nM
32 | GUUUCACAUGAGGAUCACCCAUGUGAGGAUAUAGAUUUGUUAGUCGUAAUUGAUAGAUUUAGAAGGCGCGUGAU [JR_Exc1_Sub002] (Eterna round: R97, puzzle: Exclusion 1) | 27.4 nM | 25.2 nM | – | – | – | –
33 | GGUCUGCGAGGAUAUACAUGAGGAUCACCCAUGUGAGUGAUACUAGUGAGGUCGAUUGGUAGAAGGCGCGGACG [JL-ex3-2.05 salish99 mod] (puzzle: Exclusion 3) | – | – | 37 nM | 445 nM | 839 nM | –
34 | GGAAUACAUGAGGAUCACCCAUGUAAGGAUAUGCUGAAUAUUACGGAAUAAACGUGCAGCAGAAGGUACAAAGG [Mat - Mod of my Eli Mod D47] (puzzle: Exclusion 1) | – | – | 105 nM | 83.4 nM | 125 nM | –

— the supplement of paper PMC9170038
